Primed or numbered codes have the meaning given here. Side chains are listed from the residue outwards. Ends that are not written are not given here. * marks the point of attachment. Biotin = O=C1N[C@H]2[C@H](CS[C@H]2CCCCC(=O)*)N1; PEG2(3) = PEG2 spacer carrying biotin on Lys; PEG2″ = not defined here; PEG = not defined here; PEG2(4) = PEG2 spacer
target: human Factor IXa (human, UniProt P00740 47-191; P00740 227-461); experiment: cell-based or functional assay

Binder | EC50 [µM], FXa generation assay [µM] | EC50 [µM], FXa generation assay with hFIXa [µM]
RRAPGKLTCLASYCWLFWTGWCRDTASHACDS [RRAPGKLTCLASYCWLF WTGWC RDTASHACDS] | > 1 | –
RRAPGKLTCLASYCWLFWK([PEG2″-Biotin])GIA (not fully specified; printed as RRAPGKLTCLASYCWLFWK(PEG2-Biotin)GIA; cysteine pairing not given here) [RRAPGKLTCLASYCWLFWK(PEG2-Biotin)GIA] | < 0.5 | –
RRAPGKLTCLASYCWK([PEG2(3)-Biotin])FWTGIA (not fully specified (C-terminus); printed as RRAPGKLTCLASYCWK(PEG2-Biotin)FWTGIA; cysteine pairing not given here) [RRAPGKLTCLASYCWK(PEG2-Biotin)FWTGIA] | > 1 | –
RK([PEG2(3)-Biotin])APGKLTCLASYCWLFWTGIA (not fully specified (C-terminus); printed as RK(PEG2-Biotin)APGKLTCLASYCWLFWTGIA; cysteine pairing not given here) [RK(PEG2-Biotin)APGKLTCLASYCWLFWTGIA] | < 0.5 | –
RRAPGKLTCLASYCWLFWTGWAVLARVPVGWT [RRAPGKLTCLASYCWLF WTGWA VLARVPVGWT] | < 0.5 | –
WSLCFKLTCAYL-NH2 (cysteine pairing not given here) [compound A] | – | > 100
RRAPGKLTCLK([PEG2(3)-Biotin])SYCWLFWTGIA (cysteine pairing not given here) [RRAPGKLTCLK(PEG2-Biotin)SYCWLFWTGIA] | < 0.5 | –
QRAGRVARLHRRAPNKLTCLASYCWLFWTGIA [QRAGRVARLH RRAPN KLTCLASYCWLFWTGIA] | > 1 | –
PSGWAGWAPGRREPGKLTCLASYCWLFWTGIA [PSGWAGWAPG RREPG KLTCLASYCWLFWTGIA] | > 1 | –
RRAK([PEG2(4)-Biotin])GKLTCLASYCWLFWTGIA (not fully specified (C-terminus); printed as RRAK(PEG2-Biotin)GKLTCLASYCWLFWTGIA; cysteine pairing not given here) [RRAK(PEG2-Biotin)GKLTCLASYCWLFWTGIA] | > 1 | –
WRAGLDESQRDRAPGKLTCLASYCWLFWTGIA [WRAGLDESQR DRAPG KLTCLASYCWLFWTGIA] | < 0.5 | –
RRAPGKLTCLASYCWLFWTGIK([PEG2(3)-Biotin]) (not fully specified (C-terminus); printed as RRAPGKLTCLASYCWLFWTGIK(PEG2-Biotin); cysteine pairing not given here) [RRAPGKLTCLASYCWLFWTGIK(PEG2-Biotin)] | < 0.5 | –
RRAPGKLTCLASYCWLFWRGFAERASEDTNQG [RRAPGKLTCLASYCWLF WRGFA ERASEDTNQG] | > 1 | –
AVDSLPLYGARSAPSKLTCLASYCWLFWTGIA (not fully specified; cysteine pairing not given here) [AVDSLPLYGA RSAPS KLTCLASYCWLFWTGIA] | < 0.5 | –
RRAPGKLQCLASYCWLFWTGIA-NH2 (not fully specified (bridges); cysteine pairing not given here) [compound 3] | – | < 0.5
RRAPGKLTCLASYCK([PEG2(3)-Biotin])LFWTGIA (not fully specified (C-terminus); printed as RRAPGKLTCLASYCK(PEG2-Biotin)LFWTGIA; cysteine pairing not given here) [RRAPGKLTCLASYCK(PEG2-Biotin)LFWTGIA] | < 0.5 | –
TLWPWGGQGGRNAPGKLTCLASYCWLFWTGIA [TLWPWGGQGG RNAPG KLTCLASYCWLFWTGIA] | > 1 | –
SRIRTVGPGSRSASGKLTCLASYCWLFWTGIA | < 0.5 | –
GYRVPVGGLVRRAHGKLTCLASYCWLFWTGIA [GYRVPVGGLV RRAHG KLTCLASYCWLFWTGIA] | > 1 | –
RRAPGKLTCLASYCWLFWTGLASTLYKTYTRE [RRAPGKLTCLASYCWLF WTGLA STLYKTYTRE] | > 1 | –
QWQIAGQVLKRRAPAKLTCLASYCWLFWTGIA [QWQIAGQVLKRRAPA KLTCLASYCWLFWTGIA] | < 0.5 | –
PLKWTASGCRWLGCIQLARFAY-NH2 (cysteine pairing not given here) [compound B] | – | > 1
RRAPGKLTCLASYCWLFWTGK([PEG2(3)-Biotin])A (not fully specified (C-terminus); printed as RRAPGKLTCLASYCWLFWTGK(PEG2-Biotin)A; cysteine pairing not given here) [RRAPGKLTCLASYCWLFWTGK(PEG2-Biotin)A] | < 0.5 | –
TGLLQGRRDERARPPKLTCLASYCWLFWTGIA [TGLLQGRRDE RARPP KLTCLASYCWLFWTGIA] | < 0.5 | –
RRAPGKLTCLASK([PEG2″-Biotin])CWLFWTGIA (not fully specified; printed as RRAPGKLTCLASK(PEG2-Biotin)CWLFWTGIA; cysteine pairing not given here) [RRAPGKLTCLASK(PEG2-Biotin)CWLFWTGIA] | < 0.5 | –
HLFGADWLGARTAPGKLTCLASYCWLFWTGIA [HLFGADWLGA RTAPG KLTCLASYCWLFWTGIA] | > 1 | –
E([PEG-Biotin])RAPGKLTCLASYCWLFWTGIA (not fully specified; printed as Glu(Biotinyl-PEG)-RAPGKLTCLASYCWLFWTGIA; cysteine pairing not given here; reading uncertain) [Glu(Biotinyl-PEG)-RAPGKLTCLASYCWLFWTGIA] | > 4 | –

More lines, now with the values ahead:

EC50 [µM], FXa generation assay [µM] | EC50 [µM], FXa generation assay with hFIXa [µM] | Binder
< 0.5 | – | RRAPGK([PEG2(3)-Biotin])LTCLASYCWLFWTGIA (not fully specified (bridges); printed as RRAPGK(PEG2-Biotin)LTCLASYCWLFWTGIA; cysteine pairing not given here) [RRAPGK(PEG2-Biotin)LTCLASYCWLFWTGIA]
< 0.5 | – | RRAPGKLTCLASYCWLFWTGFAFRVGLASSLY [RRAPGKLTCLASYCWLF WTGFA FRVGLASSLY]
< 0.5 | – | TQWAQVGPRGRRAQGKLTCLASYCWLFWTGIA [TQWAQVGPRG RRAQG KLTCLASYCWLFWTGIA]
> 5 | – | RRAPGKK([PEG2(3)-Biotin])TCLASYCWLFWTGIA (cysteine pairing not given here) [RRAPGKK(PEG2-Biotin)TCLASYCWLFWTGIA]
> 1 | – | RRAPGKLTCLASYCWLK([PEG2″-Biotin])WTGIA (not fully specified; printed as RRAPGKLTCLASYCWLK(PEG2-Biotin)WTGIA; cysteine pairing not given here) [RRAPGKLTCLASYCWLK(PEG2-Biotin)WTGIA]
< 0.5 | – | RRAPGKLTCLASYCWLFWTGIA (not fully specified; C-terminal PEG4) [RRAPGKLTCLASYCWLFWTGIA-PEG4]
> 10 | – | RRAPGKLTCLASYCWLFSTPVARKSLRRHQPT (not fully specified (C-terminus); cysteine pairing not given here) [RRAPGKLTCLASYCWLF STPVA RKSLRRHQPT]
< 0.5 | – | VGSGDERALPSRASGKLTCLASYCWLFWTGIA [VGSGDERALP SRASG KLTCLASYCWLFWTGIA]
> 1 | – | RRAPGKLTCLASYCWLFEPGIAQPYAKSPTRN [RRAPGKLTCLASYCWLF EPGIA QPYAKSPTRN]
> 1 | – | RRAPGKLTCLASYCWLFWTGLSRYQWQAQEDV [RRAPGKLTCLASYCWLF WTGLS RYQWQAQEDV]
> 1 | – | RRAPGKLTCLASYCWLFWTGYASGKPSRVYVI [RRAPGKLTCLASYCWLF WTGYA SGKPSRVYVI]
< 0.5 | – | RRAPGKLTCLASYCWLFQTGWAYWGYRQHPGS [RRAPGKLTCLASYCWLF QTGWA YWGYRQHPGS]
< 0.5 | – | RRAPGKLTCK([PEG2(3)-Biotin])ASYCWLFWTGIA (cysteine pairing not given here) [RRAPGKLTCK(PEG2-Biotin)ASYCWLFWTGIA]
< 0.5 | – | LQLSYGEQRQSRAPGKLTCLASYCWLFWTGIA [LQLSYGEQRQ SRAPG KLTCLASYCWLFWTGIA]
< 0.5 | – | RRK([PEG2″-Biotin])PGKLTCLASYCWLFWTGIA (not fully specified; printed as RRK(PEG2-Biotin)PGKLTCLASYCWLFWTGIA; cysteine pairing not given here) [RRK(PEG2-Biotin)PGKLTCLASYCWLFWTGIA]
> 1 | – | TSGPFGFGGSSRAQGKLTCLASYCWLFWTGIA [TSGPFGFGGS SRAQG KLTCLASYCWLFWTGIA]
> 1 | – | RRAPGKLTCLASYCWLFSTGVATHANTTATAQ [RRAPGKLTCLASYCWLF STGVA THANTTATAQ]

Reference: US20140303084A1 (Biogen, published 2014)
